Data from patent US20240035010, “COMPOSITIONS COMPRISING A VARIANT POLYPEPTIDE AND USES THEREOF” (Arbor Biotechnologies, Inc., published 2024).

Target: T1, variant nuclease SEQ ID NO: 53 (P14R, D32R, I61R, E311R, T338G, E736G)
T1 chain: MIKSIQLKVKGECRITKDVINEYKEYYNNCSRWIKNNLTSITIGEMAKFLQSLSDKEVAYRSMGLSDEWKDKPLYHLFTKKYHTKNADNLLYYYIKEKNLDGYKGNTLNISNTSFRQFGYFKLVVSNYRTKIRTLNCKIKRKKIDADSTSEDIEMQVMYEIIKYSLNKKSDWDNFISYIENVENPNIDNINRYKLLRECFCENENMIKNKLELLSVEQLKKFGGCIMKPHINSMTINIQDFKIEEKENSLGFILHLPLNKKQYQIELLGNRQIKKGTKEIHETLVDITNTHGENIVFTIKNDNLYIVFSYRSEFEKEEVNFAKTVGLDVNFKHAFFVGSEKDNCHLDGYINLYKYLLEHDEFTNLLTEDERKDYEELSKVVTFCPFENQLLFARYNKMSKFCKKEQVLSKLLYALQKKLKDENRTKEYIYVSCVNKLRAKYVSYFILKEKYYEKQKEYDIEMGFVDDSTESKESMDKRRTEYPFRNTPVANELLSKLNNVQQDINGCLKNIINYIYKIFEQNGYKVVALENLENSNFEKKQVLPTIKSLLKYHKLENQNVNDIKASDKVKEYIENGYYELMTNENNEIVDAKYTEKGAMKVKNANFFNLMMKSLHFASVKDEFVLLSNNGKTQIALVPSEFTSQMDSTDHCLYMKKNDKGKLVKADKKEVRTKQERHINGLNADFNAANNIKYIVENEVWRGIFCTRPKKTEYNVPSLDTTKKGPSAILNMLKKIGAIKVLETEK
Assay: cell_activity; nearly 0.6; HEK293T; PAM 5'-TTTG-3'
Settings: tags: pcDNA3.1 expression
Procedure: Approximately 16 hours prior to transfection, 25,000 HEK293T cells in DMEM/10% FBS+Pen/Strep (D10 media) were plated into each well of a 96-well plate. On the day of transfection, the cells were 70-90% confluent. For each well to be transfected, a mixture of Lipofectamine 2000™ and Opti-MEM™ was prepared and incubated at room temperature for 5 minutes (Solution 1). After incubation, the Lipofectamine 2000™:Opti-MEM™ mixture was added to a separate mixture containing nuclease plasmid, RNA guide plasmid, and Opti-MEM™ (Solution 2). In the case of negative controls, the RNA guide plasmid was not included in Solution 2. Solutions 1 and 2 were mixed by pipetting up and down, then incubated at room temperature for 25 minutes. Following incubation, the Solution 1 and 2 mixture was added dropwise to each well of a 96-well plate containing the cells. Approximately 72 hours post transfection, cells were trypsinized by adding TrypLE™ to the center of each well and incubating at 37° C. for approximately 5 minutes. D10 media was then added to each well and mixed to resuspend cells. The resuspended cells were centrifuged at 500 g for 10 minutes to obtain a pellet, and the supernatant was discarded. The cell pellet was then resuspended in QuickExtract™ buffer (Lucigen®), and cells were incubated at 65° C. for 15 minutes, 68° C. for 15 minutes, and 98° C. for 10 minutes. […]

B1: VEGFA_T1 crRNA ; VEGFA_T1 target (ssRNA ; dsDNA)
RNA: CCUGUUGUGAAUACUCUUUUAUAGGUAUCAAACAACUCCUGGUGAAAGGCAGCCCU
DNA 1: TCCTGGTGAAAGGCAGCCCT
DNA 2: AGGGCTGCCTTTCACCAGGA
Work on B1 yielded an activity of ~0.6 indel ratio.
